The source of these data is US6335019B1, “Methods for treating sensitivity to protein allergen using peptides which include a T cell epitope recognized by a T cell receptor specific for the protein allergen” (Immulogic Pharmaceutical Corp., priority 1989, dated 2002).

In this test the test system is rabbit anti-Amb a I polyclonal antibody. The test can be described thus: Western blot with rabbit anti-Amb a I polyclonal antibody (FIG. 17). It counts as binding. The source says: As is also represented in FIG. 1A, rabbit polyclonal antibodies were produced using the King Antigen E preparation. […] These antibodies were also shown, using a similar technique, to bind to the affinity purified Amb a I described previously (FIG. 17).
It is clear from the antibody reactivity that the 4B5/B7 affinity purified Amb a I has a recognition pattern similar to that of the Amb a I of pollen and skin test reagent with both rabbit polyclonal anti-Amb a I and JB1E3-4 anti-Amb a I monoclonal antibody (FIG. 17).
Affinity purified Amb a I was electrophoresed, Western transferred (Towbin et al., Proc. Natl. Acad. Sci. USA, 76:4350 (1979)) and probed with a variety of antibodies, including IgE from an allergic patient (FIG. 17). In pollen extract Amb a I is not only present as an intact 38-KD species, but also characterized by its component 26KD alpha chains and 12-KD beta chains which are formed by enzymatic cleavage. The intact 38-KD species and the alpha chain are clearly detected using rabbit anti-Amb a I, polyclonal affinity purified anti-RAE 16 and monoclonal anti-Amb a I JBIE3-4 (FIG. 17); RAE 16 peptide has the sequence RTDKDLLENGAIC derived from amino-acids 343-353 of Amb a IB, FIG. 16). […]

B1: affinity purified Amb a I: protein affinity purified from pollen extract with monoclonal antibody 4B5/B7 (protein)
chain: AEDLQEILPVNETRRLTTSGAYNIIDGCWRGKADWAENRKALADCAQGFGKGTVGGKDGDIYTVTSELDDDVANPKEGTLRFGAAQNRPLWIIFERDMVIRLDKEMVVNSDKTIDGRGAKVEIINAGFTLNGVKNVIIHNINMHDVKVNPGGLIKSNDGPAAPRAGSDGDAISISGSSQIWIDHCSLSKSVDGLVDAKLGTTRLTVSNSLFTQHQFVLLFGAGDENIEDRGMLATVAFNTFTDNVDQRMPRCRHGFFQVVNNNYDKWGSYAIGGSASPTILSQGNRFCAPDERSKKNVLGRHGEAAAESMKWNWRTNKDVLENGAIFVASGVDPVLTPEQSAGMIPAEPGESALSLTSSAGVLSCQPGAPC
Regarding B1, the “Binding by rabbit anti-Amb a I polyclonal antibodies (in words)” value is given as “bind”.
